Molecular target: ビオチン−IL−6 (UniProt P05231)
Assay: Luminex-based assay of IL-6 binding to IL-6 receptor (solid-phase sIL-6R/gp80)

Chain of UniProt P05231 (P05231 30-212 limits assumed): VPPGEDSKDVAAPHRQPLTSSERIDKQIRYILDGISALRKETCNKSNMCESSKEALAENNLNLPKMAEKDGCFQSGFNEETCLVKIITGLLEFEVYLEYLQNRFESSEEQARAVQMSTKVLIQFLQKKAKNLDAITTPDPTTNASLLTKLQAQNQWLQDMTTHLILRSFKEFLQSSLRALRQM

B1: キメラCLB8 (antibody, V domains shown)
VH: EVQLVESGGKLLKPGGSLKLSCAASGFTFSSFAMSWFRQSPEKRLEWVAEISSGGSYTYYPDTVTGRFTISRDNAKNTLYLEMSSLRSEDTAMYYCARGLWGYYALDYWGQGTSVTVSS
VL: QIVLIQSPAIMSASPGEKVTMTCSASSSVSYMYWYQQKPGSSPRLLIYDTSNLASGVPVRFSGSGSGTSYSLTISRMEAEDAATYYCQQWSGYPYTFGGGTKLEIK
B1 showed a percent inhibition of IL-6 binding to IL-6 receptor of 100%.

From JP2012055312A
